From US20070298997A1, “Compounds useful in treating diabetic microvascular complications and age-related macular degeneration” (priority 2003, published 2007)

Tested on: RCEC
Test: Quantitative analysis of apoptosis by Annexin V/PI flow cytometry
Format: cell-based, bovine
Conditions: 24 h, 40-640 nM
Method: To determine whether kallistatin might induce cell death, RCEC were incubated with different concentrations of kallistatin or 10 μM chochicine for 24 h, and the apoptotic cells were quantified using the Annexin V-flow cytometry method. Phosphatidylserine externalization is a characteristic of cells undergoing apoptosis. The Annexin V-FITC kit allows for fluorescent detection of Annexin V bound to apoptotic cells and quantitative determination by flow cytometry. The Annexin V-FITC kit uses Annexin V conjugated with fluorescein isothiocyante (FITC) to label phosphatidylserine sites on the membrane surface. The kit includes propidium iodide (PI) to label the cellular DNA in necrotic cells where the cell membrane has been totally compromised. This combination allows the differentiation among early apoptotic cells (Annexin V positive, PI negative), necrotic cells (Annexin V positive, PI positive), and viable cells (Annexin V negative, PI negative) which can be located in the lower right, upper right, and lower left quadrants of the cytograms, respectively (FIG. 4a). Because only cells that are Annexin V-positive and PI-negative are truly apoptotic cells, the percentage of this cell population was quantified.
Quantitative analysis of apoptosis by flow cytometry: RCEC were plated at a density of 10^5 cells/well in 6-well plates. […] The cells were subsequently counted by flow cytometry.

B1: kallistatin: Recombinant His-tagged rat kallistatin (serpin, SEQ ID NO:1) expressed in E. coli and affinity-purified (protein, listed as Homo sapiens)
chain: DGILGRDTLPHEDQGKGRQLHSLTLASINTDFTLSLYKKLALRNPDKNVVFSPLSISAALAILSLGAKDSTMEEILEVLKFNLTEITEEEIHHQGFGHLLQRLSQPEDQAEINTGSALFIDKEQPILSEFQEKTRALYQAEAFVADFKQCNEAKKFINDYVSNQTQGKIAELFSELDERTSMVLVNYLLFKGKWKVPFNPNDTFESEFYLDEKRSVKVPMMKIKDLTTPYIRDEELSCSVLELKYTGNASALFILPDQGKMQQVESSLQPETLKKWKDSLRPRIISELRMPKFSISTDYNLEEVLPELGIRKIFSQQADLSRITGTKNLHVSQVVHKAVLDVDETGTEGAAATAVTAALKSLPQTIPPLNFNRPFMLVITDNNGQSVFFMGKVTNPM
modifications: His tag
apoptosis (Annexin V-positive, PI-negative cells): increases apoptosis in RCEC in a dose-dependent manner
